We go through four substances from article PMC13132549.

Test [1] has as its target RXRγ (NR2B3) ligand-binding domain (LBD) (human) (UniProt P48443). Put plainly: ITC; 500 µM Nur77 LBD titrated into 50 µM RXRγ LBD preincubated with vehicle (DMSO) or RXR ligand; 5 °C; 0.25% DMSO; homodimer competition model (SEDPHAT) for the data without ligand.
Test [2] addresses RXRα LBD (Homo sapiens) (UniProt P19793). Briefly: ITC. The conditions noted are these: cited from earlier work.
The target of test [3] is RXRα (NR2B1) ligand-binding domain (LBD). Put plainly: SEC-MALS; 100 µL of each protein at 5 mg/mL (180 µM) injected; 40 mM potassium phosphate pH 7.4, 200 mM KCl; 25 °C.
The target in test [4] is RXRγ (NR2B3) ligand-binding domain (LBD) (human) (UniProt P48443). Described as above.

Where “and” joins values, the source holds several entries; their conditions need not be identical. Equal values may be shown once.

Sequence of UniProt P19793 (P19793 227-458): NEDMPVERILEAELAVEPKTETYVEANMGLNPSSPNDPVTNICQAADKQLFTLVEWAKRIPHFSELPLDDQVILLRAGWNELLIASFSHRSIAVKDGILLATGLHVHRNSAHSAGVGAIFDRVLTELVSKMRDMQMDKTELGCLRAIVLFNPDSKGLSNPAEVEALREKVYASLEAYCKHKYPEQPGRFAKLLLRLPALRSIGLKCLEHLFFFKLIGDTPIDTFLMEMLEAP

With “Nur77 (NR4A1) ligand-binding domain (LBD) (from UniProt P22736 356-598) (domain or fragment)”, the Kd in test [1] is 9 µM.

As for Nurr1 LBD (from UniProt P43354), the Kd in test [2] was 4 µM.

On to “RXRα (NR2B1) ligand-binding domain (LBD) (domain or fragment)”, for which the stoichiometry N in test [3] was 2 and 4.

In the case of “RXRγ (NR2B3) ligand-binding domain (LBD) (from UniProt P48443 226-463) (domain or fragment)”, the stoichiometry N in test [4] is 2 and 4.
